Assay results as given in the supplement of paper PMC5998384.

What was measured:
HeLa Kyoto [1] = assay: solubility in G1/S (NP-40 vs SDS abundance) (log2 ratio); higher = more soluble; settings: cell cycle stage: G1/S
HeLa Kyoto [2] = assay: melting temperature (median over replicates), in situ; higher = more thermally stable
HeLa Kyoto [3] = assay: solubility change mitosis vs G1/S (difference of NP-40 vs SDS log2 ratios) (log2 ratio difference); higher = more soluble in mitosis
HeLa Kyoto [4] = assay: thermal stability score vs G1/S (z-score of summed log2 fold changes over temperatures); higher = more thermally stable than in G1/S
[5] = cell cycle stage: early G1 (4.5 h after nocodazole release)
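For melting temperature (median over replicates), in situ in this document: HeLa Kyoto cells synchronized by double thymidine or nocodazole block, proteins quantified by TMT10plex mass spectrometry, three independent biological replicates.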
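For solubility change mitosis vs G1/S (difference of NP-40 vs SDS log2 ratios) in this document: synchronized HeLa Kyoto cells (double thymidine block for G1/S, nocodazole release for mitosis), protein amounts in NP-40 versus SDS lysates quantified by mass spectrometry, three biological replicates.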
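For solubility in G1/S (NP-40 vs SDS abundance) in this document: HeLa Kyoto cells arrested at G1/S by double thymidine block, proteins quantified by TMT10plex mass spectrometry in mild NP-40 versus SDS extracts, three biological replicates.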
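For thermal stability score vs G1/S (z-score of summed log2 fold changes over temperatures) in this document: synchronized HeLa Kyoto cells, proteins quantified by TMT10plex mass spectrometry, three biological replicates, mitosis taken 0.5 h after nocodazole release, G1/S directly after double thymidine block.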

| Sequence | solubility in G1/S (log2) (HeLa Kyoto [1]) | melting temperature (HeLa Kyoto [2]; cell cycle stage: G1/S) | melting temperature (HeLa Kyoto [2]; cell cycle stage: mitosis) | solubility change mitosis (log2) (HeLa Kyoto [3]) | thermal stability score (HeLa Kyoto [4]; [5]) | thermal stability score (HeLa Kyoto [4]; cell cycle stage: mitosis) |
| --- | --- | --- | --- | --- | --- | --- |
| MLFLALGSPWAVELPLCGRRTALCAAAALRGPRASVSRASSSSGPSGPVAGWSTGPSGAARLLRRPGRAQIPVYWEGYVRFLNTPSDKSEDGRLIYTGNMARAVFGVKCFSYSTSLIGLTFLPYIFTQNNAISESVPLPIQIIFYGIMGSFTVITPVLLHFITKGYVIRLYHEATTDTYKAITYNAMLAETSTVFHQNDVKIPDAKHVFTTFYAKTKSLLVNPVLFPNREDYIHLMGYDKEEFILYMEETSEEKRHKDDK [TMEM70] | -0.0239 | 54.1 °C | 53.4 °C | -0.344 | 0.217 | -1.65 |
| MLFYSFFKSLVGKDVVVELKNDLSICGTLHSVDQYLNIKLTDISVTDPEKYPHMLSVKNCFIRGSVVRYVQLPADEVDTQLLQDAARKEALQQKQ [LSM2] | -0.0676 | 59.9 °C | 57.5 °C | 0.0659 | -1.17 | -1.99 |
| MLGMIKNSLFGSVETWPWQVLSKGDKEEVAYEERACEGGKFATVEVTDKPVDEALREAMPKVAKYAGGTNDKGIGMGMTVPISFAVFPNEDGSLQKKLKVWFRIPNQFQSDPPAPSDKSVKIEEREGITVYSMQFGGYAKEADYVAQATRLRAALEGTATYRGDIYFCTGYDPPMKPYGRRNEIWLLKT [HEBP1] | 0.27 | 52.9 °C | 53.3 °C | 0.0399 | -1.08 | -2.04 |
| MLGPHLPPPPLAPSEGRPTPCAFQIPDGSYRCLALEAEESSGEEGLQGEVGPTDLEEDEGVSRSGDDSACRVTQGTPQLPKALGIQPPSCSREEQGASQHDDRASQDWDVVKAGQMMTASPSPGPGPRVAQKPALGRSTSLTEKDLKEAKARSQQIAAQLTTPPSSNSRGVQLFNRRRQRVNEFTLESHGQRGQKPSQESLRVLPSSLPGHAPGLSLSSTSLPEPGPPRHPSPQSPDRGVPGHSMEGYSEEASLLRHLEKVASEEEEVPLVVYLKENAALLTANGLHLSQNREAQQSSPAPPPAEVHSPAADVNQNLASPSATLTTPTSNSSHNPPATDVNQNPPATVVPQSLPLSSIQQNSSEAQLPSNGTGPASKPSTLCADGQPQAPAEEVRCSTLLIDKVSTPATTTSTFSREATLIPSSRPPASDFMSSSLLIDIQPNTLVVSADQEMSGRAAATTPTKVYSEVHFTLAKPPSVVNRTARPFGIQAPGGTSQMERSPMLERRHFGEKAPAPQPPSLPDRSPRPQRHIMSRSPMVERRMMGQRSPASERRPLGNFTAPPTYTETLSTAPLASWVRSPPSYSVLYPSSDPKSSHLKGQAVPASKTGILEESMARRGSRKSMFTFVEKPKVTPNPDLLDLVQTADEKRRQRDQGEVGVEEEPFALGAEASNFQQEPAPRDRASPAAAEEVVPEWASCLKSPRIQAKPKPKPNQNLSEASGKGAELYARRQSRMEKYVIESSSHTPELARCPSPTMSLPSSWKYPTNAPGAFRVASRSPARTPPASLYHGYLPENGVLRPEPTKQPPYQLRPSLFVLSPIKEPAKVSPRAASPAKPSSLDLVPNLPKGALPPSPALPRPSRSSPGLYTSPGQDSLQPTAVSPPYGGDISPVSPSRAWSPRAKQAPRPSFSTRNAGIEAQVWKPSFCFK [SYNPO] | -1.65 |  | 52.8 °C | 1.62 | -0.595 | -3 |
| MLGSLVLRRKALAPRLLLRLLRSPTLRGHGGASGRNVTTGSLGEPQWLRVATGGRPGTSPALFSGRGAATGGRQGGRFDTKCLAAATWGRLPGPEETLPGQDSWNGVPSRAGLGMCALAAALVVHCYSKSPSNKDAALLEAARANNMQEVSRLLSEGADVNAKHRLGWTALMVAAINRNNSVVQVLLAAGADPNLGDDFSSVYKTAKEQGIHSLEDGGQDGASRHITNQWTSALEFRRWLGLPAGVLITREDDFNNRLNNRASFKGCTALHYAVLADDYRTVKELLDGGANPLQRNEMGHTPLDYAREGEVMKLLRTSEAKYQEKQRKREAEERRRFPLEQRLKEHIIGQESAIATVGAAIRRKENGWYDEEHPLVFLFLGSSGIGKTELAKQTAKYMHKDAKKGFIRLDMSEFQERHEVAKFIGSPPGYVGHEEGGQLTKKLKQCPNAVVLFDEVDKAHPDVLTIMLQLFDEGRLTDGKGKTIDCKDAIFIMTSNVASDEIAQHALQLRQEALEMSRNRIAENLGDVQISDKITISKNFKENVIRPILKAHFRRDEFLGRINEIVYFLPFCHSELIQLVNKELNFWAKRAKQRHNITLLWDREVADVLVDGYNVHYGARSIKHEVERRVVNQLAAAYEQDLLPGGCTLRITVEDSDKQLLKSPELPSPQAEKRLPKLRLEIIDKDSKTRRLDIRAPLHPEKVCNTI [CLPB] | 0.0358 | 52 °C | 51.8 °C | -0.0294 | 0.555 | 0.467 |
| MLHFNRCHHLKKITQKCFSSIHVKTDKHAQRFLSRTFALAELRKSWYSTHSLVGDKNIILMGPPGAGKTTVGRIIGQKLGCCVIDVDDDILEKTWNMSVSEKLQDVGNEQFLEEEGKAVLNFSASGSVISLTGSNPMHDASMWHLKKNGIIVYLDVPLLDLICRLKLMKTDRIVGQNSGTSMKDLLKFRRQYYKKWYDARVFCESGASPEEVADKVLNAIKRYQDVDSETFISTRHVWPEDCEQKVSAKFFSEAVIEGLASDGGLFVPAKEFPKLSCGEWKSLVGATYVERAQILLERCIHPADIPAARLGEMIETAYGENFACSKIAPVRHLSGNQFILELFHGPTGSFKDLSLQLMPHIFAHCIPPSCNYMILVATSGDTGSAVLNGFSRLNKNDKQRIAVVAFFPENGVSDFQKAQIIGSQRENGWAVGVESDFDFCQTAIKRIFNDSDFTGFLTVEYGTILSSANSINWGRLLPQVVYHASAYLDLVSQGFISFGSPVDVCIPTGNFGNILAAVYAKMMGIPIRKFICASNQNHVLTDFIKTGHYDLRERKLAQTFSPSIDILKSSNLERHLHLMANKDGQLMTELFNRLESQHHFQIEKALVEKLQQDFVADWCSEGECLAAINSTYNTSGYILDPHTAVAKVVADRVQDKTCPVIISSTAHYSKFAPAIMQALKIKEINETSSSQLYLLGSYNALPPLHEALLERTKQQEKMEYQVCAADMNVLKSHVEQLVQNQFI [THNSL1] | -0.0605 | 52.5 °C | 52.7 °C | -0.0759 | 0.435 | -0.697 |
| MLHLSAAPPAPPPEVTATARPCLCSVGRRGDGGKMAAAGALERSFVELSGAERERPRHFREFTVCSIGTANAVAGAVKYSESAGGFYYVESGKLFSVTRNRFIHWKTSGDTLELMEESLDINLLNNAIRLKFQNCSVLPGGVYVSETQNRVIILMLTNQTVHRLLLPHPSRMYRSELVVDSQMQSIFTDIGKVDFTDPCNYQLIPAVPGISPNSTASTAWLSSDGEALFALPCASGGIFVLKLPPYDIPGMVSVVELKQSSVMQRLLTGWMPTAIRGDQSPSDRPLSLAVHCVEHDAFIFALCQDHKLRMWSYKEQMCLMVADMLEYVPVKKDLRLTAGTGHKLRLAYSPTMGLYLGIYMHAPKRGQFCIFQLVSTESNRYSLDHISSLFTSQETLIDFALTSTDIWALWHDAENQTVVKYINFEHNVAGQWNPVFMQPLPEEEIVIRDDQDPREMYLQSLFTPGQFTNEALCKALQIFCRGTERNLDLSWSELKKEVTLAVENELQGSVTEYEFSQEEFRNLQQEFWCKFYACCLQYQEALSHPLALHLNPHTNMVCLLKKGYLSFLIPSSLVDHLYLLPYENLLTEDETTISDDVDIARDVICLIKCLRLIEESVTVDMSVIMEMSCYNLQSPEKAAEQILEDMITIDVENVMEDICSKLQEIRNPIHAIGLLIREMDYETEVEMEKGFNPAQPLNIRMNLTQLYGSNTAGYIVCRGVHKIASTRFLICRDLLILQQLLMRLGDAVIWGTGQLFQAQQDLLHRTAPLLLSYYLIKWGSECLATDVPLDTLESNLQHLSVLELTDSGALMANRFVSSPQTIVELFFQEVARKHIISHLFSQPKAPLSQTGLNWPEMITAITSYLLQLLWPSNPGCLFLECLMGNCQYVQLQDYIQLLHPWCQVNVGSCRFMLGRCYLVTGEGQKALECFCQAASEVGKEEFLDRLIRSEDGEIVSTPRLQYYDKVLRLLDVIGLPELVIQLATSAITEAGDDWKSQATLRTCIFKHHLDLGHNSQAYEALTQIPDSSRQLDCLRQLVVVLCERSQLQDLVEFPYVNLHNEVVGIIESRARAVDLMTHNYYELLYAFHIYRHNYRKAGTVMFEYGMRLGREVRTLRGLEKQGNCYLAALNCLRLIRPEYAWIVQPVSGAVYDRPGASPKRNHDGECTAAPTNRQIEILELEDLEKECSLARIRLTLAQHDPSAVAVAGSSSAEEMVTLLVQAGLFDTAISLCQTFKLPLTPVFEGLAFKCIKLQFGGEAAQAEAWAWLAANQLSSVITTKESSATDEAWRLLSTYLERYKVQNNLYHHCVINKLLSHGVPLPNWLINSYKKVDAAELLRLYLNYDLLEEAVDLVSEYVDAVLGKGHQYFGIEFPLSATAPMVWLPYSSIDQLLQALGENSANSHNIALSQKILDKLEDYQQKVDKATRDLLYRRTL [NUP160] | -0.58 | 52.1 °C | 49.4 °C | 0.135 | -3.22 | -3.66 |
| MLKALFLTMLTLALVKSQDTEETITYTQCTDGYEWDPVRQQCKDIDECDIVPDACKGGMKCVNHYGGYLCLPKTAQIIVNNEQPQQETQPAEGTSGATTGVVAASSMATSGVLPGGGFVASAAAVAGPEMQTGRNNFVIRRNPADPQRIPSNPSHRIQCAAGYEQSEHNVCQDIDECTAGTHNCRADQVCINLRGSFACQCPPGYQKRGEQCVDIDECTIPPYCHQRCVNTPGSFYCQCSPGFQLAANNYTCVDINECDASNQCAQQCYNILGSFICQCNQGYELSSDRLNCEDIDECRTSSYLCQYQCVNEPGKFSCMCPQGYQVVRSRTCQDINECETTNECREDEMCWNYHGGFRCYPRNPCQDPYILTPENRCVCPVSNAMCRELPQSIVYKYMSIRSDRSVPSDIFQIQATTIYANTINTFRIKSGNENGEFYLRQTSPVSAMLVLVKSLSGPREHIVDLEMLTVSSIGTFRTSSVLRLTIIVGPFSF [EFEMP1] | -0.278 | 54.2 °C | 54.1 °C | -0.165 | 4.52 | 3.96 |
| MLKFRTVHGGLRLLGIRRTSTAPAASPNVRRLEYKPIKKVMVANRGEIAIRVFRACTELGIRTVAIYSEQDTGQMHRQKADEAYLIGRGLAPVQAYLHIPDIIKVAKENNVDAVHPGYGFLSERADFAQACQDAGVRFIGPSPEVVRKMGDKVEARAIAIAAGVPVVPGTDAPITSLHEAHEFSNTYGFPIIFKAAYGGGGRGMRVVHSYEELEENYTRAYSEALAAFGNGALFVEKFIEKPRHIEVQILGDQYGNILHLYERDCSIQRRHQKVVEIAPAAHLDPQLRTRLTSDSVKLAKQVGYENAGTVEFLVDRHGKHYFIEVNSRLQVEHTVTEEITDVDLVHAQIHVAEGRSLPDLGLRQENIRINGCAIQCRVTTEDPARSFQPDTGRIEVFRSGEGMGIRLDNASAFQGAVISPHYDSLLVKVIAHGKDHPTAATKMSRALAEFRVRGVKTNIAFLQNVLNNQQFLAGTVDTQFIDENPELFQLRPAQNRAQKLLHYLGHVMVNGPTTPIPVKASPSPTDPVVPAVPIGPPPAGFRDILLREGPEGFARAVRNHPGLLLMDTTFRDAHQSLLATRVRTHDLKKIAPYVAHNFSKLFSMENWGGATFDVAMRFLYECPWRRLQELRELIPNIPFQMLLRGANAVGYTNYPDNVVFKFCEVAKENGMDVFRVFDSLNYLPNMLLGMEAAGSAGGVVEAAISYTGDVADPSRTKYSLQYYMGLAEELVRAGTHILCIKDMAGLLKPTACTMLVSSLRDRFPDLPLHIHTHDTSGAGVAAMLACAQAGADVVDVAADSMSGMTSQPSMGALVACTRGTPLDTEVPMERVFDYSEYWEGARGLYAAFDCTATMKSGNSDVYENEIPGGQYTNLHFQAHSMGLGSKFKEVKKAYVEANQMLGDLIKVTPSSKIVGDLAQFMVQNGLSRAEAEAQAEELSFPRSVVEFLQGYIGVPHGGFPEPFRSKVLKDLPRVEGRPGASLPPLDLQALEKELVDRHGEEVTPEDVLSAAMYPDVFAHFKDFTATFGPLDSLNTRLFLQGPKIAEEFEVELERGKTLHIKALAVSDLNRAGQRQVFFELNGQLRSILVKDTQAMKEMHFHPKALKDVKGQIGAPMPGKVIDIKVVAGAKVAKGQPLCVLSAMKMETVVTSPMEGTVRKVHVTKDMTLEGDDLILEIE [PC] | -0.0111 | 51.4 °C | 51.5 °C | -0.101 | -1.77 | -2.7 |
